# Measured values as given in US20200347384.
# How the values were obtained:
# [1] = biological target: T1, HIV-1 reverse transcriptase (HIV RT) (Human immunodeficiency virus) (UniProt P03366+P03366); assay: EMSA; conditions: TNA at all positions; ~500 pM after 1 h 37 C with snake venom phosphodiesterase (p160)
# [2] = biological target: T1, HIV-1 reverse transcriptase (HIV RT) (Human immunodeficiency virus); assay: MST; conditions: TNA at all positions; triplicate
sequence,measurement,setting,value
AATAGTAAATTGATTTAAAAATTTCATAAATGCTACATAA [HIV-RT 3.17],Kd,[1],0.196 nM
same,Kd,[2],0.38 nM
